One block for each binder: values may come before it.
Target: T1, human VEGF165 protein (human, UniProt P15692-4 27-191)
T1 construct: Immobilised on the ELISA plate
Assay: ELISA, human VEGF165 immobilised on plate
Description: Next, the anti-human immunoglobulin G antibody and the anti-horseradish peroxidase (HRP) antibody were sequentially allowed to bind.

T1 sequence (P15692 other isoform, or with tags, fused parts or gaps limits assumed): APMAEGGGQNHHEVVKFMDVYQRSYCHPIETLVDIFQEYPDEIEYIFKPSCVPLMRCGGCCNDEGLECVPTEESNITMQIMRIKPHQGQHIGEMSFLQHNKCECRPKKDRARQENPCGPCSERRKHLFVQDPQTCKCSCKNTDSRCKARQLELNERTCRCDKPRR

- binding result: binds
B1: PRO238 (bispecific antibody)
heavy: EVQLVESGGGLVQPGGSLRLSCAASGFSFTSSSVSWVRQAPGKGLEWVGLIYPYNGFNYYADSVKGRFTISADTSKNTAYLQMNSLRAEDTAVYYCARNALYGSGGYYAMDYWGQGTLVTVSSASTKGPSVFPLAPSSKSTSGGTAALGCLVKDYFPEPVTVSWNSGALTSGVHTFPAVIQSSGLYSLSSVVTVPSSSLGTQTYICNVNHKPSNTKVDKRVEPKSCDKTHTCPPCPAPEAAGGPSVFLFPPKPKDTLMISRTPEVTCVVVAVSHEDPEVKFNWYVDGVEVHNAKTKPREEQYGSTYRVVSVLTVLHQDWLNGKEYKCKVSNKALPAPIEKTISKAKGQPREPQVYTLPPSREEMTKNQVSLTCLVKGFYPSDIAVEWESNGQPENNYKTTPPVLDSDGSFFLYSKLTVDKSRWQQGNVFSCSVMHEALHNHYTQKSLSLSPGGGGGSGGGGSSDTGRPFVEMYSEIPEIIHMTEGRELVIPCRVTSPNITVTLKKFPLDTLIPDGKRIIWDSRKGFIISNATYKEIGLLTCEATVNGHLYKTNYLTHRQTNTIIDVVLSPSHGIELSVGEKLVLNCTARTELNVGIDFNWEYPSSKHQHKKLVNRDLKTQSGSEMKKFLSTLTIDGVTRSDQGLYTCAASSGLMTKKNSTFVRVHEK
light: DIQMTQSPSSLSASVGDRVTITCRASQDVSTAVAWYQQKPGKAPKLLIYSASFLYSGVPSRFSGSGSGTDFTLTISSLQPEDFATYYCQQSYATLPTFEQGTKVEIKRTVAAPSVFIFPPSDEQLKSGTASVVCLLNNFYPREAKVQWKVDNALQSGNSQESVTEQDSKDSTYSLSSTLTLSKADYEKHKVYACEVTHQGLSSPVTKSFNRGEC
notes: Purified as a fusion protein dimer

- binding result: binds
B2: PRO236 (bispecific antibody, human IgG1, kappa, L234A L235A, N297G)
heavy: EVQLVESGGGLVQPGGSLRLSCAASGFTFSSYWMTWVRQAPGKGLEWVSSIKIKPDGYAASVKGRFTISRDNSKNTLYLQMNSLRAEDTAVYYCARLFYQYFARMDYWGQGTLVTVSSASTKGPSVFPLAPSSKSTSGGTAALGCLVKDYFPEPVTVSWNSGALTSGVHTFPAVLQSSGLYSLSSVVTVPSSSLGTQTYICNVNHKPSNTKVDKRVEPKSCDKTHTCPPCPAPEAAGGPSVFLFPPKPKDTLMISRTPEVTCVVVAVSHEDPEVKFNWYVDGVEVHNAKTKPREEQYGSTYRVVSVLTVLHQDWLNGKEYKCKVSNKALPAPIEKTISKAKGQPREPQVYTLPPSREEMTKNQVSLTCLVKGFYPSDIAVEWESNGQPENNYKTTPPVLDSDGSFFLYSKLTVDKSRWQQGNVFSCSVMHEALHNHYTQKSLSLSPGGGGGSGGGGSSDTGRPFVEMYSEIPEIIHMTEGRELVIPCRVTSPNITVTLKKFPLDTLIPDGKRIIWDSRKGFIISNATYKEIGLLTCEATVNGHLYKTNYLTHRQTNTIIDVVLSPSHGIELSVGEKLVLNCTARTELNVGIDFNWEYPSSKHQHKKLVNRDLKTQSGSEMKKFLSTLTIDGVTRSDQGLYTCAASSGLMTKKNSTFVRVHEK
light: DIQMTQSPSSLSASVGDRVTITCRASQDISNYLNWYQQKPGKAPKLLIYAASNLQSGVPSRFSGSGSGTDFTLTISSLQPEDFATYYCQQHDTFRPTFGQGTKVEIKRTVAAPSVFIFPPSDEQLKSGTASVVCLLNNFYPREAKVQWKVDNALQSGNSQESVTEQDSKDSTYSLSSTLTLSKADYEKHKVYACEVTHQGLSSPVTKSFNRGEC
notes: as for B1

- binding result: binds
B3: PRO237 (bispecific antibody, human IgG1, kappa, L234A L235A, N297G)
heavy: EVQLVQSGAEVKKPGASVKVSCKASGYTFTGYYINWVRQAPGQGLEWMGIISPNQGTTGYAQKFQGRVTMTRDTSISTAYMELSSLRSEDTAVYYCARGNYDHLDYWGQGTLVTVSSASTKGPSVFPLAPSSKSTSGGTAALGCLVKDYFPEPVTVSWNSGALTSGVHTFPAVIQSSGLYSLSSVVTVPSSSLGTQTYICNVNHKPSNTKVDKRVEPKSCDKTHTCPPCPAPEAAGGPSVFLFPPKPKDTLMISRTPEVTCVVVAVSHEDPEVKFNWYVDGVEVHNAKTKPREEQYGSTYRVVSVLTVLHQDWLNGKEYKCKVSNKALPAPIEKTISKAKGQPREPQVYTLPPSREEMTKNQVSLTCLVKGFYPSDIAVEWESNGQPENNYKTTPPVLDSDGSFFLYSKLTVDKSRWQQGNVFSCSVMHEALHNHYTQKSLSLSPGGGGGSGGGGSSDTGRPFVEMYSEIPEIIHMTEGRELVIPCRVTSPNITVTLKKFPLDTLIPDGKRIIWDSRKGFIISNATYKEIGLLTCEATVNGHLYKTNYLTHRQTNTIIDVVLSPSHGIELSVGEKLVLNCTARTELNVGIDFNWEYPSSKHQHKKLVNRDLKTQSGSEMKKFLSTLTIDGVTRSDQGLYTCAASSGLMTKKNSTFVRVHEK
light: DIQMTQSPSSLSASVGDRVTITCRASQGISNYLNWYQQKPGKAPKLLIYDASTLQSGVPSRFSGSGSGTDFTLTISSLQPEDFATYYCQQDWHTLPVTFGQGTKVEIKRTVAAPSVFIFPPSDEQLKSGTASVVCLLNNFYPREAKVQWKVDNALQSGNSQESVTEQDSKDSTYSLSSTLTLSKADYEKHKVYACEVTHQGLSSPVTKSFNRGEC
notes: as for B1

- binding result: binds
B4: PRO241 (bispecific antibody, IgG1)
chain: SDTGRPFVEMYSEIPEIIHMTEGRELVIPCRVTSPNITVTLKKFPLDTLIPDGKRIIWDSRKGFIISNATYKEIGLLTCEATVNGHLYKTNYLTHRQTNTIIDVVLSPSHGIELSVGEKLVLNCTARTELNVGIDFNWEYPSSKHQHKKLVNRDLKTQSGSEMKKFLSTLTIDGVTRSDQGLYTCAASSGLMTKKNSTFVRVHEKGGGGSDKTHTCPPCPAPEAAGGPSVFLFPPKPKDTLMISRTPEVTCVVVAVSHEDPEVKFNWYVDGVEVHNAKTKPREEQYGSTYRVVSVLTVLHQDWLNGKEYKCKVSNKALPAPIEKTISKAKGQPREPQVYTLPPSREEMTKNQVSLTCLVKGFYPSDIAVEWESNGQPENNYKTTPPVLDSDGSFFLYSKLTVDKSRWQQGNVFSCSVMHEALHNHYTQKSLSLSPGGGGGSGGGGSGGGGSEVQLVQSGAEVKKPGASVKVSCKASGYTFTGYYINWVRQAPGQGLEWMGIISPNQGTTGYAQKFQGRVTMTRDTSISTAYMELSSLRSEDTAVYYCARGNYDHLDYWGQGTLVTVSSGGGGSGGGGSGGGGSGGGGSDIQMTQSPSSLSASVGDRVTITCRASQGISNYLNWYQQKPGKAPKLLIYDASTLQSGVPSRFSGSGSGTDFTLTISSLQPEDFATYYCQQDWHTLPVTFGQGTKVEIK
notes: as for B1

- binding result: binds
B5: PRO242 (bispecific antibody, IgG1)
chain: SDTGRPFVEMYSEIPEIIHMTEGRELVIPCRVTSPNITVTLKKFPLDTLIPDGKRIIWDSRKGFIISNATYKEIGLLTCEATVNGHLYKTNYLTHRQTNTIIDVVLSPSHGIELSVGEKLVLNCTARTELNVGIDFNWEYPSSKHQHKKLVNRDLKTQSGSEMKKFLSTLTIDGVTRSDQGLYTCAASSGLMTKKNSTFVRVHEKGGGGSDKTHTCPPCPAPEAAGGPSVFLFPPKPKDTLMISRTPEVTCVVVAVSHEDPEVKFNWYVDGVEVHNAKTKPREEQYGSTYRVVSVLTVLHQDWLNGKEYKCKVSNKALPAPIEKTISKAKGQPREPQVYTLPPSREEMTKNQVSLTCLVKGFYPSDIAVEWESNGQPENNYKTTPPVLDSDGSFFLYSKLTVDKSRWQQGNVFSCSVMHEALHNHYTQKSLSLSPGGGGGSGGGGSGGGGSEVQLVESGGGLVQPGGSLRLSCAASGFSFTSSSVSWVRQAPGKGLEWVGLIYPYNGFNYYADSVKGRFTISADTSKNTAYLQMNSLRAEDTAVYYCARNALYGSGGYYAMDYWGQGTLVTVSSGGGGSGGGGSGGGGSGGGGSDIQMTQSPSSLSASVGDRVTITCRASQDVSTAVAWYQQKPGKAPKLLIYSASFLYSGVPSRFSGSGSGTDFTLTISSLQPEDFATYYCQQSYATLPTFEQGTKVEIK
notes: as for B1

Source: patent US20250074974A1 (KANAPH THERAPEUTICS, published 2025)
